In this experiment the target is nucleosome core particle labeled with H4Kc20me2. Description: native gel or EMSA. In general terms: Mobility shift assays separate free from complexed probe on a gel.

In turn, “human Origin Recognition Complex subunit 1 BAH domain, R105Q mutant (from UniProt Q13415 45-171) (domain or fragment)” displayed a fold reduction of affinity against wild type hORC1BAH of more than 2 fold.
